Values joined by “and” are separate entries in the source; they are usually repeats but may differ in a detail not shown here. Equal values may be shown once.

Holding throughout (conditions): SPR: TBS (50 mM Tris-HCl, 150 mM NaCl, pH 6.8) or TBS-KCl (150 mM KCl instead of NaCl), 1-32 nM DARPin on 300-500 RU biotinylated DNA; ELISA: 100 nM …
(In general: In SPR one partner is held on a chip, and binding of the other changes the refractive index at the surface.)

Series [1] deals with DARPin 1G2 (synthetic construct). Nature of the series: SPR.
Series [2] relates to DARPin 1C11 (synthetic construct). The series is described as follows: SPR.
Series [3] relates to DARPin 2G10 (synthetic construct). Nature of the series: SPR.
Series [4] has as its system DARPin 2E4 (synthetic construct). Nature of the series: SPR.
The test system of series [5] is DARPin 1G2 (synthetic construct). Nature of the series: SPR. This is another data set of the same source.
The subject of series [6] is DARPin 1C11 (synthetic construct). Nature of the series: SPR. This is another data set of the same source.
Series [7] relates to DARPin 2G10 (synthetic construct). The series is described as follows: SPR. The source holds these as a separate data set.
Series [8] has as its system DARPin 1C7 (synthetic construct). Nature of the series: SPR.
Series [9] relates to DARPin 2E4 (synthetic construct). The series is described as follows: SPR. This is another data set of the same source.
Series [10] relates to DARPin 1G11 (synthetic construct). Nature of the series: SPR.
Series [11] relates to DARPin 2G7 (synthetic construct). Nature of the series: SPR.
Series [12] relates to DARPin 2C10 (synthetic construct). Nature of the series: SPR.
Series [13] concerns DARPin 1H4 (synthetic construct). The series is described as follows: SPR.
Series [14] has as its system DARPin 1C7 (synthetic construct). Nature of the series: SPR. This is another data set of the same source.
The subject of series [15] is DARPin 2D10 (synthetic construct). Nature of the series: SPR.
For series [16], the system named is DARPin 2G7 (synthetic construct). Nature of the series: SPR. This is another data set of the same source.
For series [17], the system named is DARPin 2C10 (synthetic construct). Nature of the series: SPR. This is another data set of the same source.
In series [18] the test system is DARPin 1C6 (synthetic construct). Nature of the series: SPR.
For series [19], the system named is DARPin 1H4 (synthetic construct). Nature of the series: SPR. This is another data set of the same source.
In series [20] the test system is DARPin 2D10 (synthetic construct). Nature of the series: SPR. The source holds these as a separate data set.
For series [21], the system named is DARPin 1G2 (synthetic construct). The series is described as follows: competition SPR.
Series [22] concerns DARPin 2G7 (synthetic construct). Nature of the series: competition SPR.
The subject of series [23] is DARPin 2C10 (synthetic construct). Nature of the series: competition SPR.
Series [24] concerns DARPin 1H4 (synthetic construct). The series is described as follows: competition SPR.
In series [25] the test system is DARPin 1C11 (synthetic construct). Nature of the series: competition SPR.
The test system of series [26] is DARPin 1C7 (synthetic construct). The series is described as follows: competition SPR.
The subject of series [27] is DARPin 2E4 (synthetic construct). The series is described as follows: competition SPR.
The subject of series [28] is DARPin 2D10 (synthetic construct). Nature of the series: competition SPR.
Series [29] has as its system DARPin 1G2 (synthetic construct). Nature of the series: competition SPR. The source holds these as a separate data set.
For series [30], the system named is DARPin 2G7 (synthetic construct). The series is described as follows: competition SPR. The source holds these as a separate data set.
Series [31] has as its system DARPin 2C10 (synthetic construct). The series is described as follows: competition SPR. This is another data set of the same source.
Series [32] relates to DARPin 1C6 (synthetic construct). Nature of the series: competition SPR.
Series [33] relates to DARPin 1H4 (synthetic construct). The series is described as follows: competition SPR. This is another data set of the same source.
Series [34] relates to DARPin 1C11 (synthetic construct). Nature of the series: competition SPR. This is another data set of the same source.
For series [35], the system named is DARPin 1C7 (synthetic construct). Nature of the series: competition SPR. The source holds these as a separate data set.
Series [36] deals with DARPin 2D10 (synthetic construct). Nature of the series: competition SPR. The source holds these as a separate data set.

What is called Kd is a measure of binding affinity in units of concentration. On to TGAGGGTGGGTAGGGTGGGTAA [c-MYC], for which the Kd was 16 nM and 14 nM in [1]; 17 nM and 6.8 nM in series [2]; 100 nM and 15 nM in [3]; 28 nM and 19 nM in [4]; 43 nM in [5]; 49 nM in [6]. The Kd in series [7] is 90 nM; in [8], 81 nM; in series [9], 64 nM; in series [10], 19 nM.
In the case of “TTAGGGTTAGGGTTAGGGTTAGGG [tel (biotinylated)]”, the Kd in series [1] is 7.9 nM and 3.3 nM; in series [11] it was 10 nM and 5.5 nM; in series [12] it was 20 nM and 35 nM; in series [13], 15 nM and 14 nM; in [2] it was 11 nM and 8.9 nM; in series [3] it was 65 nM and 15 nM. Also, the dissociation constant (Kd) is 15 nM and 3.3 nM in [14]; 4.6 nM and 42 nM in series [4]; 18 nM and 22 nM in series [15]; 53 nM in [5]; 20 nM in series [16]; 48 nM in [17]. Besides, the Kd stood at 16 nM in series [18]; 62 nM in [19]; 53 nM in series [6]; 37 nM in series [8]; 34 nM in series [20]; 72 nM in [10].
Take CAGGGGTGTGGGGACAGGGGTGTGGGGAC [ILPR]: the Kd was 9.4 nM and 6.4 nM in series [1]; 12 nM and 4 nM in series [2]; 22 nM and 19 nM in series [3]; 21 nM and 14 nM in [14]; 27 nM in series [5]; 43 nM in series [6]. In addition, the Kd in series [8] came to 33 nM; in [10], 44 nM.
With “TTAGGGTTAGGGTTAGGGTTAGGG [tel (non-biotinylated)]”, the Kd in series [21] stood at 3.6 nM; in series [22] it was 8 nM; in series [23] it was 160 nM; in series [24], 19 nM; in [25], 72 nM; in [26], 160 nM. The equilibrium dissociation constant (Kd) stood at 120 nM in series [27]; 160 nM in series [28]; 69 nM in series [29]; 32 nM in series [30]; 67 nM in series [31]; 56 nM in [32]. Besides, the Kd worked out at 81 nM in series [33], 100 nM in [34], 110 nM in series [35] and 110 nM in series [36].

Source of the values: PMC4132713.
